In patent publication US20220175920A1 (INSERM INSTITUT NATIONAL DE LA SANTE ET DE LA RECHERCHE …, published 2022):

B1: anti-CD40 12E12 human IgG4 antibody (antibody, V domains shown)
VH: EVQLVESGGGLVQPGGSLKLSCATSGFTFSDYYMYWVRQAPGKGLEWVAYINSGGGSTYYPDTVKGRFTISRDNAKNTLYLQMNSLRAEDTAVYYCARRGLPFHAMDYWGQGTLVTVSS
VL: DIQMTQSPSSLSASVGDRVTITCSASQGISNYLNWYQQKPGKAVKLLIYYTSILHSGVPSRFSGSGSGTDYTLTISSLQPEDFATYYCQQFNKLPPTFGGGTK
notes: also called mAb6 [12E12]; anti-CD40 12E12 IgG4
B2: anti-CD40 11B6 human IgG4 antibody (antibody, V domains shown)
VH: EVQLVQSGAEVKKPGASVKISCKASGYSFTGYYMHWVKQAHGQGLEWIGRINPYNGATSYNQNFKDRATLTVDKSTSTAYMELSSLRSEDTAVYYCAREDYVYWGQGTTVTVSS
VL: DVVMTQSPLSLPVTLGQPASISCRSSQSLVHSNGNTYLHWYQQRPGQSPRLLIYKVSNRFSGVPDRFSGSGSGTDFTLKISRVEAEDVGVYFCSQSTHVPWTFGGGTKLEIKR
notes: also called mAb1 [11B6 VH/VkV2]; PAB3405
B3: CP-870,893 formatted as human IgG4 (antibody, V domains shown)
VH: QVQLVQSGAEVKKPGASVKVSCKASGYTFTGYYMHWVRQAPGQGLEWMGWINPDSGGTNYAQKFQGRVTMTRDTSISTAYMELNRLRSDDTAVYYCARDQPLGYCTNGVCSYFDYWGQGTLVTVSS
VL: DIQMTQSPSSVSASVGDRVTITCRASQGIYSWLAWYQQKPGKAPNLLIYTASTLQSGVPSRFSGSGSGTDFTLTISSLQPEDFATYYCQQANIFPLTFGGGTK
notes: also called mAb5 [CP870893]; anti-CD40 CP
B4: anti-CD40 24A3 human IgG4 antibody (antibody, V domains shown)
VH: DVQLQESGPDLVKPSQSLSLTCTVTGYSITSDYSWHWIRQFPGNKLEWMGYIYYSGSTNYNPSLKSRISITRDTSKNQFFLQLNSVTTEDSATYFCARFYYGYSFFDYWGQGTTLTVSS
VL: QIVLTQSPAFMSASPGEKVTMTCSASSSVSYMHWYQQKSGTSPKRWIYDTSKLASGVPARFSGSGSGTSYSLTISSMEAEDAATYYCQQWSSNPLTFGAGTK
notes: also called mAb4 [24A3]
B5: anti-CD40 12B4 human IgG4 antibody (antibody, V domains shown)
VH: EVQLQQSGPELVKPGASVKMSCKASGYTFTDYVLHWVKQKPGQGLEWIGYINPYNDGTKYNEKFKGKATLTSDKSSSTAYMELSSLTSEDSAVYYCARGYPAYSGYAMDYWGQGTSVTVSS
VL: DIQMTQTTSSLSASLGDRVTISCRASQDISNYLNWYQQKPDGTVKLLIYYTSRLHSGVPSRFSGSGSGTDYSLTISNLEQEDIATYFCHHGNTLPWTFGGGTK
notes: also called mAb3 [12B4]

target: T1, cohesin-human CD40 ectodomain protein (P3398) (human); assay: SPR
T1 construct: SPR analyte; also called soluble human CD40 ectodomain; liquid phase soluble human CD40 ectodomain; not shown: cohesin domain of P3398 and its junction to CD40
T1 sequence (chain, as listed by the source limits assumed): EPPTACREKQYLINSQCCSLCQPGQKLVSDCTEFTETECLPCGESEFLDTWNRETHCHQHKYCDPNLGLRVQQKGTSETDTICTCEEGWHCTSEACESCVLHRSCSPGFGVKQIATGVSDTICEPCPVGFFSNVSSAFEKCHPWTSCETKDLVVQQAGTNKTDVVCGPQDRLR

Row | Binder | Kd
1 | B1 | 28000 pM

target: T2, human CD40 ectodomain fused to FAS transmembrane and intracellular domains, on CHO cells (human); assay: cell-based or functional assay
T2 sequence (chain, as listed by the source limits assumed): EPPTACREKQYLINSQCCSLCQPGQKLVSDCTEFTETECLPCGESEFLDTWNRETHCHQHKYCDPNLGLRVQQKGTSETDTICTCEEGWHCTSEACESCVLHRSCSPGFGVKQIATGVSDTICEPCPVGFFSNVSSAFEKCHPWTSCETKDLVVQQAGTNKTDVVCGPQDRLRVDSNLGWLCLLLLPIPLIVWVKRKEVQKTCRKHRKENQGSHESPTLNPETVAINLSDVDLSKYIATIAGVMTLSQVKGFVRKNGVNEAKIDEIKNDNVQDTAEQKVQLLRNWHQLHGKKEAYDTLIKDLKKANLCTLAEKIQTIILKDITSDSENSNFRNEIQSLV

Row | Binder | EC50 of killing of CD40-FAS CHO cells (loss of MTT reduction)
2 | B1 | ~1000 pM
3 | B2 | ~2500 pM

target: T3, human CD40 on cells (B cells, MDDCs, stably transfected CHO cells) (human, UniProt P25942 21-277); assay: cell-based or functional assay
T3 sequence (P25942 21-277): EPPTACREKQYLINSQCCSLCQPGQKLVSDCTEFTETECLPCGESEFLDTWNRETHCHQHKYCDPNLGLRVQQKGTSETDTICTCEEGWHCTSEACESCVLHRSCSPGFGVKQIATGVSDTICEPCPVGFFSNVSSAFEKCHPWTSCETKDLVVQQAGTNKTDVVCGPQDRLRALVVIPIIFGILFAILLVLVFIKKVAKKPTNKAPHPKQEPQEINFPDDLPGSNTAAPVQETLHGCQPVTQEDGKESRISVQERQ

Row | Binder | EC50/EC50 CP, B cell proliferation | Δ w/sCD40L (fold): fold difference in B cell proliferation EC50 with constant 6 nM soluble human CD40L | EC50 (nM) B cell: dose for 50% of maximum B cell proliferation | EC50 w/sCD40L (nM): B cell proliferation with constant 6 nM soluble human CD40L
4 | B1 | ~10 ratio | ~0 fold |  | 
5 | B2 | ≥ 100 ratio | ≥ 100 fold | ≥ 10 nM | ≥ 0.1 nM
6 | B3 | 1 ratio | ~0 fold |  | 
7 | B4 | ≥ 1000 ratio | ~100 fold | > 10 nM | 
8 | B5 | ~10 ratio | ~0 fold |  | 

target: T3, human CD40 on cells (B cells, MDDCs, …); assay: cell-based or functional assay; remark: another data set of the same source

Row | Binder | EC50 (nM) cytokines: 50% of maximum cytokine secretion by MDDCs | EC50/EC50 CP, MDDC cytokine secretion | EC50 w/sCD40L (nM): MDDC cytokine secretion with constant suboptimal soluble human CD40L | Δ w/sCD40L (fold): MDDC cytokine secretion EC50
9 | B1 | > 10 nM | > 1000 ratio | > 10 nM | ~0 fold
10 | B2 | > 10 nM | > 1000 ratio | ≥ 0.1 nM | > 1000 fold
11 | B3 | ~0.1 nM | 1 ratio | ≥ 0.01 nM | ~100 fold
12 | B4 | > 10 nM | > 1000 ratio | ≥ 10 nM | > 1000 fold
13 | B5 | > 10 nM | ≥ 100 ratio |  | ~0 fold

target: T4, human CD40 ectodomain mouse Fc fusion protein (human, UniProt P25942 21-193); assay: competition, flow cytometry: mAb pre-incubated with CD40 ectodomain-Fc, then CD40L-transfected L cells
T4 construct: a human Fc version was used with the mouse mAbs; also called soluble CD40

Row | Binder | fold higher antibody level required to partially block CD40 binding to CD40L, against the stoichiometric amounts of 12B4 and 12E12
14 | B3 | > 20 fold

target: T1, cohesin-human CD40 ectodomain protein …; assay: SPR (SensiQ Pioneer), hIgG4 mAb captured on Protein A/G, cohesin-human CD40 ectodomain in solution

Row | Binder | Kd | koff | kon
15 | B1 | 33000 pM | 0.0046 s⁻¹ | 150000 M⁻¹ s⁻¹
16 | B2 | 217000 pM | 0.064 s⁻¹ | 300000 M⁻¹ s⁻¹
17 | B3 | 71000 pM | 0.0022 s⁻¹ | 46000 M⁻¹ s⁻¹
18 | B4 | 97000 pM | 0.008 s⁻¹ | 83000 M⁻¹ s⁻¹
19 | B5 | 100000 pM | 0.027 s⁻¹ | 250000 M⁻¹ s⁻¹

target: T3, human CD40 on cells (B cells, MDDCs, …); assay: flow cytometry, stably transfected CHO cells, 1 h on ice, goat anti-human IgG-PE, % of events in gate P1 [panel CD40 CHO]

Row | Binder | EC50 (read off the curve)
20 | B1 | ~0.3 pM
21 | B2 | ~0.2 pM
22 | B3 | ~3 pM

target: T2, human CD40 ectodomain fused to FAS …; assay: flow cytometry, stably transfected CHO cells, 1 h on ice, goat anti-human IgG-PE, % of events in gate P1 [panel WT CD40-FAS CHO]

Row | Binder | EC50 (read off the curve)
23 | B1 | ~0.5 pM
24 | B2 | ~0.3 pM
25 | B3 | ~4 pM

target: CD40 E28A FAS (mutated CD40 ectodomain fused to FAS) on CHO cells (human); assay: flow cytometry, stably transfected CHO cells, 1 h on ice, goat anti-human IgG-PE, % of events in gate P1 [panel CD40 E28A FAS CHO]
Sequence (chain, as listed by the source E28A E28A): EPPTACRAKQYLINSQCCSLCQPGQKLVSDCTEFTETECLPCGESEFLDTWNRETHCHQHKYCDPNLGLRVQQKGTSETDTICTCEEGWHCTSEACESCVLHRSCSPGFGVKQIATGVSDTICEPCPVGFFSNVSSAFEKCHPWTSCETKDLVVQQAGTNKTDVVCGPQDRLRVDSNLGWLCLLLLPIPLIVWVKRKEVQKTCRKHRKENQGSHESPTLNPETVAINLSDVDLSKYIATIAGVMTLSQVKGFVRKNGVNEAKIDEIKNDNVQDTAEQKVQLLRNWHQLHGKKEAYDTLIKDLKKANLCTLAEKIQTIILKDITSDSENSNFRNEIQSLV

Row | Binder | EC50 (read off the curve)
26 | B1 | ~0.2 pM
27 | B2 | ~0.2 pM
28 | B3 | ~10 pM

target: CD40 R27A FAS (mutated CD40 ectodomain fused to FAS) on CHO cells (human); assay: flow cytometry, stably transfected CHO cells, 1 h on ice, goat anti-human IgG-PE, % of events in gate P1 [panel CD40 R27A FAS CHO]
Sequence (chain, as listed by the source R27A R27A): as the sequence (chain, as listed by the source E28A E28A) above, with R7A, A8E counted along it

Row | Binder | EC50 (read off the curve) | binding result
29 | B1 | ~0.3 pM | 
30 | B2 | ~0.3 pM | 
31 | B3 |  | no binding

target: T4, human CD40 ectodomain mouse Fc fusion …; assay: competition flow cytometry: human IgG4 mAb titrated into 2 ug/ml human CD40 ectodomain-mouse Fc, 1 h on ice, then added to human CD40L-transfected L cells; cell-bound CD40-Fc detected with anti-IgG-PE; blocked ligand: CD40L on L cells [right panel]

Row | Binder | IC50 (read off the curve)
32 | B1 | ~0.5 µg/mL
33 | B5 | ~0.2 µg/mL
